Each block holds one binder with its values, some of them ahead of it.
Experiments:
IgE Fc Cε3–4 fragment = target: T1, IgE Fc Cε3–4 fragment (human, UniProt P01854, (N-acetylglucosamine)2(mannose)5 hepta-saccharide on N394); assay: crystal structure; 026 sdab:IgE Fc complex, 5 mg/ml in 20 mM HEPES, 50 mM NaCl, pH 7.2; sitting drops, 0.1 M imidazole pH 7.0, 11-12% PEG 20,000; 3.4 Å; details: both partners purified
T1 construct: human IgE heavy chain constant region, domains Cε3 and Cε4, as found in the crystals; Not a designed construct: the crystals held this fragment and not the Cε2–4 that was expected; also called IgE Cε3–4; source: HEK-293; a small fraction in the purified IgE Fc Cε2–4 preparation, crystallized with 026 sdab

[1] = target: the molecule itself; assay: as above

- stoichiometry N (IgE Fc Cε3–4 fragment): 2 sdab per IgE Fc
B1: 026 sdab (VHH)
VHH: EVQLLESGGGLVQPGGSLRLSCAASGFTFGNYDMAWVRQAPGKRPEWVSSIDTGGDITHYADSVKGRFTISRDNAKNTLYLQMNSLRPEDTAVYWCATDEEYALGPNEFDYYGQGTLVTVSS
notes: llama-derived, humanized single-domain antibody; Synthetic gene; also called sdab 026; anti-IgE sdab 026

B2: IgE Fc Cε3–4 fragment (domain or fragment, human)
chain: RGVSAYLSRPSPFDLFIRKSPTITCLVVDLAPSKGTVNLTWSRASGKPVNHSTRKEEKQRNGTLTVTSTLPVGTRDWIEGETYQCRVTHPHLPRALMRSTTKTSGPRAAPEVYAFATPEWPGSRDKRTLACLIQNFMPEDISVQWLHNEVQLPDARHSTTQPRKTKGSGFFVFSRLEVTRAEWEQKDEFICRAVHEAASPSQTVQRAVSVNP
modifications: (N-acetylglucosamine)2(mannose)5 hepta-saccharide on N394
notes: human IgE heavy chain constant region, domains Cε3 and Cε4, as found in the crystals; Not a designed construct: the crystals held this fragment and not the Cε2–4 that was expected; also called IgE Cε3–4; source: HEK-293; a small fraction in the purified IgE Fc Cε2–4 preparation, crystallized with 026 sdab
- binding result [1]: binds
